Experimental data taken from IntAct's records for PubMed 18477457.

B1: Beta-catenin homolog sys-1 (Caenorhabditis elegans), Q9XVI2 (parent)
chain: MHSTGEPQRGPAGPYHHPMPYHVDQIPTTSHPSWHQAPHPGLPTPPYHPQQHPNYISMQPPPSQQQQMTPQALSTQQQQQVQQQQQRQLYSSPSPSRGPAAPAQNQKFRTEQWINNQAWPYSQSPAPPVAPSVMSYHQGDDRMSMLSVNTTMTNQFPDSQRCYSSNGSTCENVNPEMMQMNITQAAEQAIRLWFNTPDPMQRLHMAKTIRTWIRQDKFAQVDQANMPNCVQQILNIIYDGLKPQPVQLPISYYAQLWYNLLDILRRFTFLPIISPYIHQVVQMFCPRENGPQDFRELICNLISLNWQKDPHMKHCANQVFQIFNCIIMGVKNEKLRTEFAQHLKFEKLVGTLSEYFNPQVHPGMINPAIFIIFRFIISKDTRLKDYFIWNNNPHDQPPPPTGLIIKLNAVMIGSYRLIAGQNPETLPQNPELAHLIQVIIRTFDLLGLLLHDSDAIDGFVRSDGVGAITTVVQYPNNDLIRAGCKLLLQVSDAKALAKTPLENILPFLLRLIEIHPDDEVIYSGTGFLSNVVAHKQHVKDIAIRSNAIFLLHTIISKYPRLDELTDAPKRNRVCEIICNCLRTLNNFLMMWIPTPNGETKTAGPNEKQQVCKFIEIDILKKLMSCLSCEGMDTPGLLELRSTILRSFILLLRTPFVPKDGVLNVIDENRKENLIGHICAAYSWVFRQPNNTRTQSTKQQLVERTISLLLVLMEQCGAEKEVAQYSYSIDCPLNLLNGNQVKPTFIHNVLVVCDKILEHCPTRADIWTIDRPMLEGLTNHRNSDIAKAANSLLSRFPENDLLAGIFSNREYF
partner: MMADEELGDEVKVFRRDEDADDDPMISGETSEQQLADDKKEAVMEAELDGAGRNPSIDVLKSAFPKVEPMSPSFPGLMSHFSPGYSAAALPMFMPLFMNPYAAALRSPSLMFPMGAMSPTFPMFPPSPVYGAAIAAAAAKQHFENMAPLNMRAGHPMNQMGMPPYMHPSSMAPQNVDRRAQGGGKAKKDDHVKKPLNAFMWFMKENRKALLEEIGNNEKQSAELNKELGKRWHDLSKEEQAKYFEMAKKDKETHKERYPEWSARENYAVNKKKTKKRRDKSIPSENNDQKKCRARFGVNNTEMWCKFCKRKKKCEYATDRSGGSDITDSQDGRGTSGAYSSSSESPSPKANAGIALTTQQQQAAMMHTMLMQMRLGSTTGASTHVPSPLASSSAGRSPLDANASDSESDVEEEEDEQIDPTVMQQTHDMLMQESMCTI
B2: Protein pop-1 (Caenorhabditis elegans), Q10666 (parent)
chain: B1 partner
partner: B1 chain

Variants of: B1
Conditions: with pop1_caeel pop-1, Q10666

Row | effect of a mutation on the interaction | Variant
1 | disrupting interaction strength | A533L
2 | disrupting interaction strength | K539A

Variants of: B2
Conditions: with ctnh1_caeel sys-1, Q9XVI2

Row | effect of a mutation on the interaction | Variant
3 | disrupting interaction strength | MMADEELGEEVKVFRRDEDADDDPMISGETSEQQLADDKKEAVMEAELDGAGRNPSIDVLKSAFPKVEPMSPSFPGLMSHFSPGYSAAALPMFMPLFMNPYAAALRSPSLMFPMGAMSPTFPMFPPSPVYGAAIAAAAAKQHFENMAPLNMRAGHPMNQMGMPPYMHPSSMAPQNVDRRAQGGGKAKKDDHVKKPLNAFMWFMKENRKALLEEIGNNEKQSAELNKELGKRWHDLSKEEQAKYFEMAKKDKETHKERYPEWSARENYAVNKKKTKKRRDKSIPSENNDQKKCRARFGVNNTEMWCKFCKRKKKCEYATDRSGGSDITDSQDGRGTSGAYSSSSESPSPKANAGIALTTQQQQAAMMHTMLMQMRLGSTTGASTHVPSPLASSSAGRSPLDANASDSESDVEEEEDEQIDPTVMQQTHDMLMQESMCTI [D9E]
